Measurements taken from patent publication US20060263342A1 (YEDA RESEARCH AND DEVELOPMENT, published 2006).
Blank lines part the entries; values can stand above or below the molecule they belong to.

Tests used:
[1] = target: murine B7.1 on HCT/HHD/B7.1 cells (murine) (UniProt Q00609); assay: flow cytometry on HCT/HHD/B7.1 cells
[2] = target: T1, HLA-A2.1 on T2 cells (human); assay: T2 stabilization assay, acid stripped T2 cells with peptide and recombinant β2m, BB7.2 staining, FACS
T1 construct: MHC class I molecule without the tested peptide
Description: (§1) T2 cells were acid stripped and incubated with the indicated peptide and recombinant β2m or with β2m alone as a negative control. […] Cells were stained with BB7.2 mAb and analyzed by FACS. The number of positive cells above control level is indicated for each of the peptides.

[3] = target: T1, HLA-A2.1 on T2 cells; assay: T2 stabilization assay, FACS
Description: as §1

Chain of murine B7.1 on HCT/HHD/B7.1 cells (murine) (Q00609 38-306): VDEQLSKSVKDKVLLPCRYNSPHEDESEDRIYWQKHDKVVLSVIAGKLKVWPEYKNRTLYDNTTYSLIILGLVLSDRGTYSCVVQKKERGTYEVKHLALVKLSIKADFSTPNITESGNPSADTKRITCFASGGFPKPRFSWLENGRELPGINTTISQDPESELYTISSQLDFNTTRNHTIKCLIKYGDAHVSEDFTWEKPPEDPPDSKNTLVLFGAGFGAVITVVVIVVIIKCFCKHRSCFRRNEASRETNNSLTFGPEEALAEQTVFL

- percent stained cells [1]: 100%
Molecule: CTLA-4-Ig fusion protein (Fc fusion)

- binding result [2]: binds
Molecule: LILGIFMTI (also called 1-8D peptide 3-5) [peptide 3-5 (from human 1-8D interferon induced transmembrane protein 2)]

- binding result [3]: binds
Molecule: KCLNIWALI (also called 1-8D peptide 3-7) [peptide 3-7 (from human 1-8D and 1-8U interferon inducible genes)]
